This is an account of results in patent US20130231265A1.

In data set [1] the test system is Syk biosensor peptide GGDEEDYEEPDEPGGKbiotinGG-betaNpa-RKKRRQRRR (SAStide biosensor).
In data set [2] the target is Syk biosensor peptide …biotinGG-betaNpa-… (SAStide biosensor). The data set is described as follows: cell-based or functional assay.
Data set [3] deals with T1, Abl artificial substrate peptide, GGDEDDNDEVAYQAPFEDGGKbiotinGG.
T1 sequence: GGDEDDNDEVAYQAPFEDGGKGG

The subject of data set [4] is T2, Src family artificial substrate peptide A, GGEEDEDIYEELDEPGGKbiotinGG.
T2 sequence: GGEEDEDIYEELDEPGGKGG

Sequence of Recombinant Abl kinase (Millipore) (P00519 whole entry): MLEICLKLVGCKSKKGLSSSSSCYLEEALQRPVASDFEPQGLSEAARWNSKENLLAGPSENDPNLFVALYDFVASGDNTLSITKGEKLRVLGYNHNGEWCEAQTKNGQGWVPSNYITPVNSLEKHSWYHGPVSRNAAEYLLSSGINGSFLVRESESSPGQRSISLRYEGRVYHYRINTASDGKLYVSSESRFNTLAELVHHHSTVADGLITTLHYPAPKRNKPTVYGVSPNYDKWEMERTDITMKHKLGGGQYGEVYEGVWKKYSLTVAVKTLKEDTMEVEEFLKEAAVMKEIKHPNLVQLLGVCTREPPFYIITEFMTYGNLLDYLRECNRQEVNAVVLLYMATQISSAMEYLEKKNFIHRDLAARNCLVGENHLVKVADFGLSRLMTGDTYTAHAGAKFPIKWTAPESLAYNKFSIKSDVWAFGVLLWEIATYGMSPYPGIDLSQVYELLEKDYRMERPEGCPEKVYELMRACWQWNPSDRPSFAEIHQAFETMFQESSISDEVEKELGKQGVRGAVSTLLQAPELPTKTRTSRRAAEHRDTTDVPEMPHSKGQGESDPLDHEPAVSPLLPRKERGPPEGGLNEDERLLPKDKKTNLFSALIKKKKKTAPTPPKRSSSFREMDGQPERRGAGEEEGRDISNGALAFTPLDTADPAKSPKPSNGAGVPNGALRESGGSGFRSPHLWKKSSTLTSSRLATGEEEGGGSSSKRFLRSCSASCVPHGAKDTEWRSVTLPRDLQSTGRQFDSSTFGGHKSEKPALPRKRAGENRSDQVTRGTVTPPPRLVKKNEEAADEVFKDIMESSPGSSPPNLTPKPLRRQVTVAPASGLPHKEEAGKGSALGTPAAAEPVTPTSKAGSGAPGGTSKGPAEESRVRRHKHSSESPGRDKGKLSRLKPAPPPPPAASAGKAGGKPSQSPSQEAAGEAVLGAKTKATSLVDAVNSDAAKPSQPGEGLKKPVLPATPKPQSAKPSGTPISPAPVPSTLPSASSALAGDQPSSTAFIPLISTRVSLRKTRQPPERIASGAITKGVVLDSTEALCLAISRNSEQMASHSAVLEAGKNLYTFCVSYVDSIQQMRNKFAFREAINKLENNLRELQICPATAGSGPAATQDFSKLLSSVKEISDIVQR

Regarding “EGFP-conjugated Syk (Syk-EGFP) isolated from DT40 chicken B cells stably expressing Syk-EGFP”, in data set [1], the “in vitro kinase assay, ELISA-based antiphosphotyrosine (4G10) chemifluorescence signal over time” value is listed as “A substantial increase in signal over time was observed, demonstrating that SAStide was phosphorylated by Syk in vitro” and the “in vitro kinase assay, time-resolved Tb3+ luminescence, percent phosphorylation against time” value was “These data show that enzymatic phosphorylation of SAStide can be detected using time-resolved Tb^3+ luminescence”.

For “EGFP-conjugated Syk (Syk-EGFP) isolated from DT40 chicken B cells stably expressing Syk-EGFP (enzyme)”, in data set [2], the phosphorylation of the biosensor peptide in Syk(-/-) DT40 cells reconstituted with Syk-EGFP, BCR stimulation by IgM, over unstimulated cells was determined as 2 fold and the phosphorylation of the biosensor peptide in Syk(-/-) DT40 cells reconstituted with Syk-EGFP, H2O2 with or without BCR stimulation, over control came out at 12 fold.

For Recombinant Abl kinase (Millipore), the “in vitro kinase assay, ELISA-based antiphosphotyrosine (4G10) chemifluorescence signal” value in data set [1] is “none of which produced any significant signal for phosphopeptide”. The “in vitro kinase assay, terbium-sensitized luminescence, confirmed by ELISA-based Amplex Red chemifluorescent assay” value in data set [3] is “ABStide was specific for Abl against the Src-family kinase, Hck”.

Consider Recombinant Hck, for which the “in vitro kinase assay, time-resolved Tb3+ luminescence, percent phosphorylation against time” value in data set [4] is “These data show that enzymatic phosphorylation of SFAStideA can be detected using time-resolved Tb^3+ luminescence”. Further, in data set [3], the “in vitro kinase assay, terbium-sensitized luminescence, confirmed by ELISA-based Amplex Red chemifluorescent assay” value was “ABStide was specific for Abl against the Src-family kinase, Hck”.

For Recombinant Lyn kinase (Millipore), in data set [1], the “in vitro kinase assay, ELISA-based antiphosphotyrosine (4G10) chemifluorescence signal” value was “none of which produced any significant signal for phosphopeptide”.

Take Recombinant Src kinase (Millipore): in data set [1], the “in vitro kinase assay, ELISA-based antiphosphotyrosine (4G10) chemifluorescence signal” value is recorded as “none of which produced any significant signal for phosphopeptide”.
